Data from patent US20260201008A1, “SECRETIN-DERIVED GLP1R SELECTIVE AGONISTS” (GUBRA A/S, priority 2023, published 2026).
Values after ≈ are worked out from the molar mass of the structure shown. Where two headings read alike, the source gives them in different places. Numbered stars: 1 amine (or outer) side, 2 acyl side, 3 side chain; on linkers, the order of the positions; unused ones are H or OH. Square brackets hold non-standard residues; d marks the D form. Side chains are listed from the residue outwards. Ends that are not written are not given here. Peptide text beside a SMILES is read from it. * marks the point of attachment. C20 diacid = O=C(O)CCCCCCCCCCCCCCCCCCC(=O)*; γGlu = O=C(O)[C@H](CCC(=O)[*:2])N[*:1]; AEEA = NCCOCCOCC(=O)O; Aib = CC(C)(N)C(=O)O

Legend:
[1] = Turbidity of crude library peptides (absorbance at 600 nm); format: physicochemical; conditions: Physical stability of peptides
Method in brief: (§1)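 Values reflect mean ThT emission (ex 450, em 480 nm) over 72 h at 40° C, read every 10 min after 5 min shaking at 700 rpm, plus a single initial absorbance at 600 nm for turbidity. Peptides were at 267 μM, pH 4.0 acetate or pH 7.0 phosphate (50 mM), with 4 μM ThT.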

[2] = Fibril formation of crude library peptides (Thioflavin T); format: physicochemical; design: key: average ThT fluorescence emission at 480 nm (ex 450 nm), raw units; conditions: Physical stability of peptides
Method in brief: as §1

[3] = Thioflavin T fibril formation assay of purified peptides; format: physicochemical; conditions: 267 μM, phosphate buffer pH 7.0, 96 h at 40° C.
Method: Thioflavin T fibril formation assay: Peptides are dissolved as 267 μM in 50 mM phosphate buffer pH 7.0 for 2 h at room temperature on a rocking table. The samples were then divided into three replicates of 80 μl/well and mixed with 2 μl/well Thioflavin T (ThT) to a final concentration of 4 μM ThT in a black 384 well microplate with a clear bottom (Greiner #781096). The plate is inserted in a CLARIOstar Plus microplate reader (BMG Labtech) and fibril formation is measured as an increase in fluorescence emission at 480 nm (excitation at 450 nm) during 96 h at 40° C. with cycles of 5 min rest and 5 min linear shaking at 700 rpm.

[4] = Solubility of purified peptides; format: physicochemical; conditions: 100 mM phosphate buffer, target pH 7.0, target approximately 10 mg/mL
Method: Solubility was tested in the following vehicles: 100 mM phosphate buffer facilitating a target pH of 7.0. Samples were directly dissolved in Mini-UniPrep Syringeless Filter 0.45 μm unit (Whatman). For the desired concentration, such as a concentration of approximately 10 mg/mL, 1050 nmol of peptide was dissolved in 400 μL vehicle. Samples were incubated for at least 1 h at room temperature on a rocking table. The pH was measured and adjusted. Samples were left on the rocking table for an additional hour before a second pH measurement and adjustment. Visual inspection was performed and noted before the filter was pushed. The concentration of peptide in the filtrate was determined using CAD (Charged Aerosol Detection), double determination was done for each sample. The measured concentration was reported in μM. Furthermore, the pH of the filtrate was measured and reported. Peptides with a measured concentration within +/−20% of target concentration are considered fully soluble.

GLP1R = GLP1R (Homo sapiens, UniProt P43220); experiment: hGLP1R potency, cAMP accumulation in CHO-K1 cells stably overexpressing hGLP1R; format: cell-based; design: host or cells: CHO-K1
Method in brief: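 Potency reflects cAMP accumulation measured by time-resolved fluorescence energy transfer after a 30 min room-temperature stimulation in IBMX-containing (0.5 mM) DPBS with casein. Purified peptides were tested in duplicate over eleven threefold dilutions, and EC50 was obtained from sigmoid concentration-response fitting.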

SCTR = SCTR (Homo sapiens, UniProt P47872); experiment: hSCTR potency, cAMP accumulation in CHO-K1 cells stably overexpressing hSCTR; format: cell-based; design: alternatively Euroscreen ES-712-AF; FAST-0161L; host or cells: CHO-K1
Method in brief: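 Potency reflects cAMP accumulation after 30 min agonist exposure at room temperature in hSCTR-expressing CHO-K1 cells, with 0.5 mM IBMX present to block phosphodiesterase. EC50 was derived by nonlinear regression.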

[5] = target: T1, human GLP-1 receptor (hGLP1R) (human, UniProt P43220 24-463); experiment: cell-based or functional assay
[6] = target: T2, human secretin receptor (hSCTR) (human, UniProt P47872 23-440); experiment: cell-based or functional assay
[7] = target: T1, human GLP-1 receptor (hGLP1R); experiment: cell-based or functional assay; remark: listed apart in the source
[8] = target: T2, human secretin receptor (hSCTR); experiment: cell-based or functional assay; remark: listed apart in the source

GLP1R, sequence (P43220 24-463): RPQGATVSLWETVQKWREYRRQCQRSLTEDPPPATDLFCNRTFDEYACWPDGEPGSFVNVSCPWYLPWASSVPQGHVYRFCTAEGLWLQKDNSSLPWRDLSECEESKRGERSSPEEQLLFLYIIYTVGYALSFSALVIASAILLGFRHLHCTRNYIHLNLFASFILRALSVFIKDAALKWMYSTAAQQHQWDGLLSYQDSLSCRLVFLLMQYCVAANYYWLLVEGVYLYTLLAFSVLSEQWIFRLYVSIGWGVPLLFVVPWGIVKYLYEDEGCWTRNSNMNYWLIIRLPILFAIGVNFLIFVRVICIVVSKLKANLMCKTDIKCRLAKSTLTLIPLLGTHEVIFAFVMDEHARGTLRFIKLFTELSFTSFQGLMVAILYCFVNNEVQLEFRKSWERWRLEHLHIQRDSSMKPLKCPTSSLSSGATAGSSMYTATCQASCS
T2 sequence (P47872 23-440): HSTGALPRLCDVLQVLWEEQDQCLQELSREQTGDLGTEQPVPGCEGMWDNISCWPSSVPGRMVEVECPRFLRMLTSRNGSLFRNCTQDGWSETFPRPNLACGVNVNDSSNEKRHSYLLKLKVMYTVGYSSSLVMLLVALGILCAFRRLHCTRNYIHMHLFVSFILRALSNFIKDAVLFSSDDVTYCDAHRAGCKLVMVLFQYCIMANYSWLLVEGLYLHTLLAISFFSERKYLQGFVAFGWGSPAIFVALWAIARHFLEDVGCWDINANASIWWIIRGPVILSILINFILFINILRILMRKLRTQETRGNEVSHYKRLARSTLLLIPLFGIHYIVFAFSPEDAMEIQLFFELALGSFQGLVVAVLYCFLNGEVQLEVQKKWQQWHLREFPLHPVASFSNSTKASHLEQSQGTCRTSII
SCTR, sequence (P47872 23-440): as above

Molecule: CC(C)C[C@H](NC(=O)[C@H](Cc1ccccc1)NC(=O)[C@H](CCCNC(=N)N)NC(=O)[C@H](CCC(N)=O)NC(=O)[C@H](CC(C)C)NC(=O)C(C)(C)NC(=O)[C@H](C)NC(=O)[C@H](CCC(=O)O)NC(=O)[C@H](CCC(=O)O)NC(=O)[C@H](CCCCNC(=O)COCCOCCNC(=O)COCCOCCNC(=O)CC[C@H](NC(=O)CCCCCCCCCCCCCCCCCCC(=O)O)C(=O)O)NC(=O)[C@H](CC(C)C)NC(=O)[C@H](CCC(=O)O)NC(=O)[C@H](CO)NC(=O)[C@@H](NC(=O)[C@H](CC(=O)O)NC(=O)[C@H](CO)NC(=O)[C@@H](NC(=O)[C@H](Cc1ccccc1)NC(=O)[C@@H](NC(=O)CNC(=O)[C@H](CCC(=O)O)NC(=O)C(C)(C)NC(=O)[C@@H](N)Cc1c[nH]cn1)[C@@H](C)O)[C@@H](C)O)C(C)C)C(=O)N[C@@H](CCC(=O)O)C(=O)N[C@@H](Cc1c[nH]cn1)C(=O)N[C@@H](CC(C)C)C(=O)N[C@H](C(N)=O)C(C)C [compound 168] (H-H[Aib]EGTFTSDVSELK([AEEA-AEEA-γGlu-C20 diacid])EEA[Aib]LQRFLEHLV-NH2)
- Turbidity (pH 7) [1]: 0.08
- Fibril formation [2]: 2998
- Fibril formation [3]: No
- solubility [4]: 9800 µg/mL (≈ 2560 µM)
- Selectivity (GLP1R; SCTR EC50/GLP1R EC50 ratio, purified peptides): 8333
- EC50 (GLP1R; cAMP accumulation, CHO-K1 cells overexpressing hGLP1R, read-out: hGLP1R pEC50 (converted)): 0.00631 nM
- SCTR EC50/GLP1R EC50 ratio (GLP1R; selectivity for hGLP1R over hSCTR, cAMP accumulation in CHO-K1 cells): 6853
- EC50 (SCTR; cAMP accumulation, CHO-K1 cells overexpressing hSCTR, read-out: hSCTR pEC50 (converted)): 50.1 nM
- EC50 (SCTR; purified peptides, read-out: hSCTR EC50): 100 nM

B1: SEQ ID NO: 218 (peptide)
peptide: H[Aib]EGTFTSDISRLLEGAALQRFIQWLV-NH2
modifications: N-terminus assumed
SMILES: CC[C@H](C)[C@H](NC(=O)[C@H](Cc1ccccc1)NC(=O)[C@H](CCCNC(=N)N)NC(=O)[C@H](CCC(N)=O)NC(=O)[C@H](CC(C)C)NC(=O)[C@H](C)NC(=O)[C@H](C)NC(=O)CNC(=O)[C@H](CCC(=O)O)NC(=O)[C@H](CC(C)C)NC(=O)[C@H](CC(C)C)NC(=O)[C@H](CCCNC(=N)N)NC(=O)[C@H](CO)NC(=O)[C@@H](NC(=O)[C@H](CC(=O)O)NC(=O)[C@H](CO)NC(=O)[C@@H](NC(=O)[C@H](Cc1ccccc1)NC(=O)[C@@H](NC(=O)CNC(=O)[C@H](CCC(=O)O)NC(=O)C(C)(C)NC(=O)[C@@H](N)Cc1c[nH]cn1)[C@@H](C)O)[C@@H](C)O)[C@@H](C)CC)C(=O)N[C@@H](CCC(N)=O)C(=O)N[C@@H](Cc1c[nH]c2ccccc12)C(=O)N[C@@H](CC(C)C)C(=O)N[C@H](C(N)=O)C(C)C
- pEC50 hGLPR1 [5]: 10.4 -log M
- pEC50 hSCTR [6]: 7.8 -log M

B2: SEQ ID NO: 216 (GUB06-046) (peptide)
peptide: H[Aib]EGTFTSDLSRLLEGAALQRFIQWLV-NH2
modifications: N-terminus assumed
SMILES: CC[C@H](C)[C@H](NC(=O)[C@H](Cc1ccccc1)NC(=O)[C@H](CCCNC(=N)N)NC(=O)[C@H](CCC(N)=O)NC(=O)[C@H](CC(C)C)NC(=O)[C@H](C)NC(=O)[C@H](C)NC(=O)CNC(=O)[C@H](CCC(=O)O)NC(=O)[C@H](CC(C)C)NC(=O)[C@H](CC(C)C)NC(=O)[C@H](CCCNC(=N)N)NC(=O)[C@H](CO)NC(=O)[C@H](CC(C)C)NC(=O)[C@H](CC(=O)O)NC(=O)[C@H](CO)NC(=O)[C@@H](NC(=O)[C@H](Cc1ccccc1)NC(=O)[C@@H](NC(=O)CNC(=O)[C@H](CCC(=O)O)NC(=O)C(C)(C)NC(=O)[C@@H](N)Cc1c[nH]cn1)[C@@H](C)O)[C@@H](C)O)C(=O)N[C@@H](CCC(N)=O)C(=O)N[C@@H](Cc1c[nH]c2ccccc12)C(=O)N[C@@H](CC(C)C)C(=O)N[C@H](C(N)=O)C(C)C
- pEC50 hGLPR1 [5]: 10.4 -log M
- pEC50 hSCTR [6]: 9.3 -log M
- pEC50 hGLPR1 [7]: 10.4 -log M
- pEC50 hSCTR [8]: 9.3 -log M

B3: SEQ ID NO: 222 (peptide)
peptide: H[Aib]EGTFTSD[Aib]SRLLEGAALQRFIQWLV-NH2
modifications: N-terminus assumed
SMILES: CC[C@H](C)[C@H](NC(=O)[C@H](Cc1ccccc1)NC(=O)[C@H](CCCNC(=N)N)NC(=O)[C@H](CCC(N)=O)NC(=O)[C@H](CC(C)C)NC(=O)[C@H](C)NC(=O)[C@H](C)NC(=O)CNC(=O)[C@H](CCC(=O)O)NC(=O)[C@H](CC(C)C)NC(=O)[C@H](CC(C)C)NC(=O)[C@H](CCCNC(=N)N)NC(=O)[C@H](CO)NC(=O)C(C)(C)NC(=O)[C@H](CC(=O)O)NC(=O)[C@H](CO)NC(=O)[C@@H](NC(=O)[C@H](Cc1ccccc1)NC(=O)[C@@H](NC(=O)CNC(=O)[C@H](CCC(=O)O)NC(=O)C(C)(C)NC(=O)[C@@H](N)Cc1c[nH]cn1)[C@@H](C)O)[C@@H](C)O)C(=O)N[C@@H](CCC(N)=O)C(=O)N[C@@H](Cc1c[nH]c2ccccc12)C(=O)N[C@@H](CC(C)C)C(=O)N[C@H](C(N)=O)C(C)C
- pEC50 hGLPR1 [5]: 9.9 -log M
- pEC50 hSCTR [6]: 6.5 -log M

B4: SEQ ID NO: 221 (peptide)
peptide: H[Aib]EGTFTSDPSRLLEGAALQRFIQWLV-NH2
modifications: N-terminus assumed
SMILES: CC[C@H](C)[C@H](NC(=O)[C@H](Cc1ccccc1)NC(=O)[C@H](CCCNC(=N)N)NC(=O)[C@H](CCC(N)=O)NC(=O)[C@H](CC(C)C)NC(=O)[C@H](C)NC(=O)[C@H](C)NC(=O)CNC(=O)[C@H](CCC(=O)O)NC(=O)[C@H](CC(C)C)NC(=O)[C@H](CC(C)C)NC(=O)[C@H](CCCNC(=N)N)NC(=O)[C@H](CO)NC(=O)[C@@H]1CCCN1C(=O)[C@H](CC(=O)O)NC(=O)[C@H](CO)NC(=O)[C@@H](NC(=O)[C@H](Cc1ccccc1)NC(=O)[C@@H](NC(=O)CNC(=O)[C@H](CCC(=O)O)NC(=O)C(C)(C)NC(=O)[C@@H](N)Cc1c[nH]cn1)[C@@H](C)O)[C@@H](C)O)C(=O)N[C@@H](CCC(N)=O)C(=O)N[C@@H](Cc1c[nH]c2ccccc12)C(=O)N[C@@H](CC(C)C)C(=O)N[C@H](C(N)=O)C(C)C
- pEC50 hGLPR1 [5]: 8.6 -log M
- pEC50 hSCTR [6]: 5.3 -log M

B5: SEQ ID NO: 220 (peptide)
peptide: H[Aib]EGTFTSDVSRLLEGAALQRFIQWLV-NH2
modifications: N-terminus assumed
SMILES: CC[C@H](C)[C@H](NC(=O)[C@H](Cc1ccccc1)NC(=O)[C@H](CCCNC(=N)N)NC(=O)[C@H](CCC(N)=O)NC(=O)[C@H](CC(C)C)NC(=O)[C@H](C)NC(=O)[C@H](C)NC(=O)CNC(=O)[C@H](CCC(=O)O)NC(=O)[C@H](CC(C)C)NC(=O)[C@H](CC(C)C)NC(=O)[C@H](CCCNC(=N)N)NC(=O)[C@H](CO)NC(=O)[C@@H](NC(=O)[C@H](CC(=O)O)NC(=O)[C@H](CO)NC(=O)[C@@H](NC(=O)[C@H](Cc1ccccc1)NC(=O)[C@@H](NC(=O)CNC(=O)[C@H](CCC(=O)O)NC(=O)C(C)(C)NC(=O)[C@@H](N)Cc1c[nH]cn1)[C@@H](C)O)[C@@H](C)O)C(C)C)C(=O)N[C@@H](CCC(N)=O)C(=O)N[C@@H](Cc1c[nH]c2ccccc12)C(=O)N[C@@H](CC(C)C)C(=O)N[C@H](C(N)=O)C(C)C
- pEC50 hGLPR1 [5]: 10.2 -log M
- pEC50 hSCTR [6]: 7.2 -log M
